# Ends that are not written are not given here. carboxyfluorescein = carboxyfluorescein (fluorescent group)
# Molecular target: amylase
# Assay: fluorescence of immobilized carboxyfluorescein-labeled peptide on chip, ex 490 nm / em 520 nm, 1.0 uM amylase, 25 C, 5 min
binder,measurement,value
K(carboxyfluorescein)YQSWRYSQAC-NH2 [Lys(Rf)-Tyr-Gln-Ser-Trp-Arg-Tyr-Ser-Gln-Ala-Cys-NH2],increase of the fluorescence intensity (fold),10 times

# Source: US8148141
